Laboratory results: patent US8993717B2, “Gadd45beta targeting agents” (Imperial Innovations Limited, priority 2009, dated 2015)
Like-named read-outs stand apart in the source and are kept apart here. Square brackets hold non-standard residues; d marks the D form. Primed or numbered codes have the meaning given here. Peptide text beside a SMILES is read from it. * marks the point of attachment. Benzoyl(3-OH,4-OMe) = COc1ccc(C(=O)*)cc1O; Fmoc = O=C(OCC1c2ccccc2-c2ccccc21)*; OMe′ = Asp methyl ester; Cbz = O=C(OCc1ccccc1)*; βAla = NCCC(=O)O

Columns and labels:
[1] = tested on: KMS11 multiple myeloma cells; test: [3H]thymidine incorporation assay in KMS11; format: cell-based, human; settings: read-out: IC50 [H^3] thymidine incorporation assay in KMS11
Experimental: Cultures of multiple myeloma cells and treatments with Z-DTPs were carried out as described in Example 8 (see below). The effects of Z-DTPs on the survival/proliferation of multiple myeloma cells were evaluated by the use of [^3H]thymidine) incorporation assays, performed as also described in Example 8. The amount of cell proliferation measured with each of the Z-DTPs' concentrations used and with the untreated cultures (i.e. cultures incubated with medium alone), was expressed as counts per minute (c.p.m.)—which directly correlate with the extent of cell proliferation. All experiments were performed in triplicate.
In these latter assays, the effects of Z-DTPs, Ac-DTPs and Z-LTPs on the survival/proliferation of tumour cell lines was investigated by measuring DNA synthesis using standard tritiated thymidine ([^3H]thymidine; [^3H]-TdR) uptake assays. In the analyses shown, cells were incubated for 24, 72, 120 or 144 hrs at 37° C. in the presence or absence of control or bioactive tetrapeptides, as indicated, then subjected to an additional incubation for 18 hrs with [^3H]-TdR (0.037 MBq/well, equivalent to […]). Cells were subsequently harvested onto glass fibre filter mats using a 96-well plate automated cell harvester, after which scintillation fluid was added, and [^3H]thymidine incorporation measured by liquid scintillation spectroscopy on a beta counter. The results are expressed as the percentages of the counts per minute (c.p.m.) (directly correlating with the extent of cell proliferation) measured with tetrapeptide-treated cultures relative to the c.p.m. measured with the corresponding cultures incubated with medium alone (untreated cells). All experiments were performed in triplicate.

[2] = molecular target: T1, Gadd45β/MKK7 interaction (Homo sapiens, UniProt O14733); test: ELISA competition assay of biotin-hGadd45β binding to coated GST-MKK7; settings: for inhibition of Gadd45β/MKK7 complex formation in ELISA competition assays: result in words
T1 construct: The GST-fused full-length kinase was coated for 16 h at 4° C., at a concentration of 42 nM; made in house
T1 sequence (O14733 1-419): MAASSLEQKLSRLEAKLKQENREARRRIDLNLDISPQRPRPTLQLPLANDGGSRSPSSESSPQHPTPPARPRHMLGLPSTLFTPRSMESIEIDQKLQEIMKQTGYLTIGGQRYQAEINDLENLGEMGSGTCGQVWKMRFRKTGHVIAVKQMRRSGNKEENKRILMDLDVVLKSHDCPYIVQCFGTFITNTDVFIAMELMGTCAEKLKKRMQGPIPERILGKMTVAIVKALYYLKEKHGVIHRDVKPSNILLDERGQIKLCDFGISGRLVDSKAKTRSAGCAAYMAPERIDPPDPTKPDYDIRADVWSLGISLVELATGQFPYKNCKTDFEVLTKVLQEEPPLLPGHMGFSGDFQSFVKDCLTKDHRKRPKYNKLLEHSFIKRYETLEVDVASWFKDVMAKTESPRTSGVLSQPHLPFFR
Experimental: To evaluate the inhibitory properties of peptides, ELISA-based assays were performed. In these assays, a fusion protein of glutathione S-transferase (GST) and mitogen-activated protein kinase kinase 7 (MKK7) was coated onto wells of a 96-well plate, while biotinylated-hGadd45β was used in solution. hGadd45β was biotinylated using an EZ Link NHS-LC-biotin kit (Pierce, Rockford, Ill.), according to Tornatore et al. (Tornatore L., et al. (2008). J Mol Biol; 378:97-111).
Firstly, the association between Gadd45β and MKK7 was investigated by ELISA assays as also reported in Tornatore et al. (Tornatore L., et al. (2008). J Mol Biol; 378:97-111). The GST-fused full-length kinase was coated for 16 h at 4° C., at a concentration of 42 nM in buffer A (25 mM Tris pH 7.5, 150 mM NaCl, 1 mM DTT and 1 mM EDTA) into wells of a 96-well microliter plate. Some wells were filled with buffer alone and were used as blanks. After incubation for 16 h at 4° C., the solutions were removed and the wells were filled with 350 μL of a 1% (w/v) solution of NFDM (Non Fat Dry Milk) in PBS (phosphate buffered saline). The plate was incubated for 1 h at 37° C. in the dark. After washing with buffer T-PBS (PBS with 0.004% (v/v) Tween detergent), the wells were filled with 100 μL of biotinylated-hGadd45β at concentrations ranging from 8.4 nM to 168 nM. Each data point was performed in triplicate. Following incubation for 1 hr in the dark at 37° C. the solutions were removed and the wells were again washed with T-PBS. Then 100 μL of a 1:10,000 dilution of horseradish peroxidase-conjugated streptavidin dissolved in buffer was added to each well and the plate incubated for 1 hr at 37° C. in the dark. After removal of the enzyme solution and washing, 100 μL of the chromogenic substrate o-phenylendiamine (0.4 mg/mL in 50 mM sodium phosphate-citrate buffer, containing 0.4 mg/mL of urea in hydrogen peroxide) was added and the colour was allowed to develop in the dark for 5 min. The reaction was stopped by adding 50 μL of 2.5 M H2SO4. The absorbance at 490 nm was measured in all wells and the values were averaged after subtracting the corresponding blanks. Bound protein was then detected as described above. The molar concentration of biotinylated-hGadd45β at which the half-maximal ELISA signal is detected corresponds to the dissociation constant (KD) (Friguet B, Chaffotte A F, Djavadi-Ohaniance L, Goldberg M E. J Immunol Methods. 1985 Mar. 18; 77 (2):305-19). Binding competition assays were performed by coating GST-MKK7 at 42 nM as described, a concentration of biotinylated-hGadd45β of 21 nM (pre-saturation conditions 1:0.5 mol/mol ratio) and, in a first test, using competitors at 21 nM. The binding of biotinylated hGadd45β to GST-MKK7 was analyzed in the presence of increasing amounts of competitor peptide (concentrations ranging from 0.01 nM to 100 nM), and the values obtained with the competitor were expressed as the percentage of the binding detected in the absence of competitor. […] According to the convention adopted in the table “L-Xaa” and “D-Xaa” refer to the L and D forms of amino acid Xaa.
A simplified combinatorial peptide library (Marasco et al. 2008, Curr. Protein Pept. Sci. 9:447-67) was screened for antagonists of the Gadd45β/MKK7 interaction. This library contained a total of 12^4=20,736 different tetrapeptides formed by combinations of the following amino acid residues Gln (Q), Ser (S), Arg (R), Ala (A), Tyr (Y), Pro (P), Met (M), Cys (C), Phe (F), Leu (L), His (H), Asp (D), and was iteratively deconvoluted in four steps by ELISA competition assays using at each step coated MKK7 (42 nM), soluble-biotin-hGadd45β (21 nM) and each of the 12 sub-libraries (42 nM).

[3] = Table II, modified pure peptides
[4] = Table I, initial Elisa screening, coated MKK7 42 nM, biotin-hGadd45β 21 nM, competitor 21 nM, sub-libraries 42 nM

Molecule: N=C(N)NCCC[C@@H](NC(=O)[C@@H](CCC(N)=O)NC(=O)[C@@H](Cc1ccc(O)cc1)NC(=O)OCc1ccccc1)C(=O)N[C@H](Cc1ccccc1)C(N)=O [Z-Tyr-Gln-Arg-Phe-NH2] (Cbz-[dY][dQ][dR][dF]-NH2)
- IC50 ([1]; Day 1): > 10 µM
- IC50 ([1]; Day 3): > 10 µM
- IC50 ([1]; Day 6): > 10 µM

Molecule: NC(=O)C[C@@H](NC(=O)[C@@H](Cc1ccc(O)cc1)NC(=O)OCc1ccccc1)C(=O)N[C@H](Cc1ccccc1)C(N)=O [Z-Tyr-Asn-Phe-NH2] (Cbz-[dY]-[dN]-[dF]-NH2)
- IC50 ([1]; Day 1): > 10 µM
- IC50 ([1]; Day 3): > 10 µM
- IC50 ([1]; Day 6): > 10 µM

Molecule: Ac-YEKW-NH2
- % Inhibition of Gadd45β-MKK7 binding [2, 3]: 27%

Molecule: Ac-YPRF-NH2
- % Inhibition of Gadd45β-MKK7 binding ([2]; Table III, modified peptides): 13%

Molecule: Fmoc(βAla)2-YDHL-NH2 ({Fmoc-βAla-βAla}-YDHL-NH2; SMILES CC(C)C[C@H](NC(=O)[C@H](Cc1c[nH]cn1)NC(=O)[C@H](CC(=O)O)NC(=O)[C@H](Cc1ccc(O)cc1)NC(=O)CCNC(=O)CCNC(=O)OCC1c2ccccc2-c2ccccc21)C(N)=O)
- % Inhibition of Gadd45β-MKK7 binding [2, 4]: 33%

Molecule: Ac-YERP-NH2
- % Inhibition of Gadd45β-MKK7 binding ([2]; Table III, modified peptides): 0%

Molecule: Fmoc(βAla)2-YDHR-NH2 ({Fmoc-βAla-βAla}-YDHR-NH2; SMILES N=C(N)NCCC[C@H](NC(=O)[C@H](Cc1c[nH]cn1)NC(=O)[C@H](CC(=O)O)NC(=O)[C@H](Cc1ccc(O)cc1)NC(=O)CCNC(=O)CCNC(=O)OCC1c2ccccc2-c2ccccc21)C(N)=O)
- % Inhibition of Gadd45β-MKK7 binding [2, 4]: 2%

Molecule: Fmoc(βAla)2-YDHY-NH2 ({Fmoc-βAla-βAla}-YDHY-NH2; SMILES NC(=O)[C@H](Cc1ccc(O)cc1)NC(=O)[C@H](Cc1c[nH]cn1)NC(=O)[C@H](CC(=O)O)NC(=O)[C@H](Cc1ccc(O)cc1)NC(=O)CCNC(=O)CCNC(=O)OCC1c2ccccc2-c2ccccc21)
- % Inhibition of Gadd45β-MKK7 binding [2, 4]: 63%

Molecule: Benzoic acid-YDHF-NH2
- % Inhibition of Gadd45β-MKK7 binding ([2]; Table III, modified peptides): 0%

Molecule: Ac-WEKF-NH2
- % Inhibition of Gadd45β-MKK7 binding [2, 3]: 65%

Molecule: Z-YD(OMe)HF-NH2 (Cbz-YD(OMe′)HF-NH2)
- % Inhibition of Gadd45β-MKK7 binding ([2]; Table III, modified peptides): 84%

Molecule: Ac-WERW-NH2
- % Inhibition of Gadd45β-MKK7 binding [2, 3]: 69%

Molecule: CC(=O)NC(Cc1ccccc1)C(=O)NC(CCCNC(=N)N)C(=O)NC(Cc1ccc(O)cc1)C(N)=O (stereo not drawn) [Compound O1, Ac-FRY-NH2] (Ac-Phe-Arg-Tyr-NH2; configuration not given here)
- IC50 ([2]; Table VI, compounds 0.01-100 nM, read-out: IC50 Elisa): > 0.1 µM

Molecule: Ac-WDKF-NH2
- % Inhibition of Gadd45β-MKK7 binding [2, 3]: 26%

Molecule: Fmoc(βAla)2-YDHM-NH2 ({Fmoc-βAla-βAla}-YDHM-NH2; SMILES CSCC[C@H](NC(=O)[C@H](Cc1c[nH]cn1)NC(=O)[C@H](CC(=O)O)NC(=O)[C@H](Cc1ccc(O)cc1)NC(=O)CCNC(=O)CCNC(=O)OCC1c2ccccc2-c2ccccc21)C(N)=O)
- % Inhibition of Gadd45β-MKK7 binding [2, 4]: 14%

Molecule: Ac-WEKW-NH2
- % Inhibition of Gadd45β-MKK7 binding [2, 3]: 65%

Molecule: Fmoc(βAla)2-YDHC-NH2 ({Fmoc-βAla-βAla}-YDHC-NH2; SMILES NC(=O)[C@H](CS)NC(=O)[C@H](Cc1c[nH]cn1)NC(=O)[C@H](CC(=O)O)NC(=O)[C@H](Cc1ccc(O)cc1)NC(=O)CCNC(=O)CCNC(=O)OCC1c2ccccc2-c2ccccc21)
- % Inhibition of Gadd45β-MKK7 binding [2, 4]: 44%

Molecule: Ac-WERF-NH2
- % Inhibition of Gadd45β-MKK7 binding [2, 3]: 29%

Molecule: Benzoic acid-YDHQ-NH2
- % Inhibition of Gadd45β-MKK7 binding ([2]; Table III, modified peptides): 1%

Molecule: Ac-WDHW-NH2
- % Inhibition of Gadd45β-MKK7 binding [2, 3]: 50%

Molecule: 3-OH—4MeO-Benzoid acid-YERF-NH2 ({Benzoyl(3-OH,4-OMe)}-YERF-NH2)
- % Inhibition of Gadd45β-MKK7 binding ([2]; Table III, modified peptides): 86%

Molecule: CC(=O)N[C@H](CC1CCCCC1)C(=O)N[C@H](CCCNC(=N)N)C(=O)N[C@H](Cc1ccccc1)C(N)=O [Compound 20, Ac-Cha-Arg-Phe-NH2]
- IC50 ([2]; Table V, FIG. 3C, read-out: IC50 ELISA): > 0.005 µM
- inhibition of Gadd45β/MKK7 complex formation in ELISA competition assays [2]: inactive

Molecule: Ac-YDRW-NH2
- % Inhibition of Gadd45β-MKK7 binding [2, 3]: 43%

Molecule: Ac-YEAF-NH2
- % Inhibition of Gadd45β-MKK7 binding ([2]; Table III, modified peptides): 13%

Molecule: Fmoc(βAla)2-YDHA-NH2 ({Fmoc-βAla-βAla}-YDHA-NH2; SMILES C[C@H](NC(=O)[C@H](Cc1c[nH]cn1)NC(=O)[C@H](CC(=O)O)NC(=O)[C@H](Cc1ccc(O)cc1)NC(=O)CCNC(=O)CCNC(=O)OCC1c2ccccc2-c2ccccc21)C(N)=O)
- % Inhibition of Gadd45β-MKK7 binding [2, 4]: 15%

Molecule: Ac-YERF-NH2
- % Inhibition of Gadd45β-MKK7 binding [2, 3]: 93%
- inhibition of Gadd45β/MKK7 complex formation in ELISA competition assays [2]: IC50s similar to those of DTPs

Molecule: Fmoc(βAla)2-YDHS-NH2 ({Fmoc-βAla-βAla}-YDHS-NH2; SMILES NC(=O)[C@H](CO)NC(=O)[C@H](Cc1c[nH]cn1)NC(=O)[C@H](CC(=O)O)NC(=O)[C@H](Cc1ccc(O)cc1)NC(=O)CCNC(=O)CCNC(=O)OCC1c2ccccc2-c2ccccc21)
- % Inhibition of Gadd45β-MKK7 binding [2, 4]: 0%

Molecule: Ac-WDRF-NH2
- % Inhibition of Gadd45β-MKK7 binding [2, 3]: 46%

Molecule: Ac-WEHF-NH2
- % Inhibition of Gadd45β-MKK7 binding [2, 3]: 36%

Molecule: Z-YD(OMe)HQ-NH2 (Cbz-YD(OMe′)HQ-NH2)
- % Inhibition of Gadd45β-MKK7 binding ([2]; Table III, modified peptides): 3%

Molecule: Fmoc-YDHF-NH2
- % Inhibition of Gadd45β-MKK7 binding ([2]; Table III, modified peptides): 58%
